In patent US20100260668A1 (published 2010):
Several values for one entry are separate records, joined by “and”; a condition that tells them apart may be missing. Equal entries are not always repeated.

What was measured:
[1] = biological target: T1, insulin-like growth factor receptor (IGF1R) (human, UniProt P08069 31-1367); test: cell-based or functional assay
[2] = biological target: T1, insulin-like growth factor receptor …; test: cell-based or functional assay; remark: listed apart in the source
[3] = biological target: T1, insulin-like growth factor receptor …; test: cell-based or functional assay; remark: listed apart in the source
[4] = biological target: T2, ErbB3 (ErbB3 ECD/FC Chimera-His tag, R&D 348-RB-050) (UniProt P21860 20-643, limits assumed); test: direct bind ELISA, coated antigen; parent reference antibody
T2 construct: extracellular domain; Bought antigen coated on the ELISA plate

[5] = biological target: T3, IGF1 (UniProt P05019 49-118, limits assumed); test: cell-based or functional assay
[6] = biological target: recombinant human VEGF165 (human, UniProt P15692-4 27-191); test: cell-based or functional assay
[7] = biological target: T4, IGF2 (UniProt P01344 25-91, limits assumed); test: cell-based or functional assay
[8] = biological target: IGF2 (UniProt P01344 25-91); test: cell-based or functional assay
[9] = biological target: hIGF1 (human, UniProt P05019 49-118); test: cell-based or functional assay
[10] = biological target: T5, PlGF (UniProt P49763-2 21-149, limits assumed); test: direct bind ELISA, reference antibody
T5 construct: bought antigen coated on the ELISA plate; also called Placental GF
T5 sequence (looked up): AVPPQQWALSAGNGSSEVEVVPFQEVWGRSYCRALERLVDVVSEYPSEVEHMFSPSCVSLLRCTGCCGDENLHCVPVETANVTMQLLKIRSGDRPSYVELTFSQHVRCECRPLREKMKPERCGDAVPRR

[11] = biological target: T6, VEGF (VEGF 1-165 aa, R&D Systems 293-VE-010) (UniProt P15692 27-191); test: Direct bind ELISA, VEGF coated on plate; VEGF domain C-term., HC short/LC long
T6 construct: bought reagent; also called vascular endothelial growth factor

[12] = biological target: T6, VEGF (VEGF 1-165 aa, R&D Systems …); test: Direct bind ELISA, VEGF coated on plate; VEGF domain N-term., HC short/LC long
[13] = biological target: T3, IGF1; test: cell-based or functional assay; remark: listed apart in the source
[14] = biological target: T4, IGF2; test: cell-based or functional assay; remark: listed apart in the source

T6 sequence (P15692 other isoform, or with tags, fused parts or gaps limits assumed): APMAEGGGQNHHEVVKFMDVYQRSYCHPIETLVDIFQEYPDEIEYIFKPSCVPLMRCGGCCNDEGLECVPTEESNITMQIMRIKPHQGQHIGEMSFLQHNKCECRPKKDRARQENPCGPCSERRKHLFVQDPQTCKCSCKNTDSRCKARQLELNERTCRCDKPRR
Sequence of recombinant human VEGF165 (P15692 other isoform, or with tags, fused parts or gaps limits assumed): as above

B1: AB011 (antibody, human IgG1, kappa, V domains shown)
VH: EVQLLESGGGLVQPGGSLRLSCTASGFTFSSYAMNWVRQAPGKGLEWVSAISGSGGTTFYADSVKGRFTISRDNSRTTLYLQMNSLRAEDTAVYYCAKDLGWSDSYYYYYGMDVWGQGTTVTVSS
VL: DIQMTQFPSSLSASVGDRVTITCRASQGIRNDLGWYQQKPGKAPKRLIYAASRLHRGVPSRFSGSGSGTEFTLTISSLQPEDFATYYCLQHNSYPCSFGQGTKLEIKR
A431, EGFR line proliferation inhibition IC50 [1]: > 67 nM
A431, EGFR line proliferation inhibition, max [1]: 5 % max
H929, IGF1R line proliferation inhibition IC50 [2]: 0.1 nM
H929, IGF1R line proliferation inhibition, max [2]: 65 % max
GEO, EGFR/IGF1R line proliferation inhibition IC50 [3]: > 67 nM
GEO, EGFR/IGF1R line proliferation inhibition, max [3]: 15 % max

B2: AB063 (antibody, human IgG1, kappa, V domains shown)
VH: EVQLVESGGGLVQPGGSLRLSCAASGFTFSIYSMNWVRQAPGKGLEWVSYISSSSSTIYYADSVKGRFTISRDNAKNSLYLQMNSLRDEDTAVYYCARDRGDFDAFDIWGQGTMVTVSS
VL: DIQMTQSPSSLSASVGDRVTITCQASQDITNYLNWYQQKPGKAPKLLIYDASNLETGVPSRFSGSGSGTDFTFTISSLQPEDIATYNCQQCENFPITFGQGTRLEIKR
notes: also called AB063VH
EC50 [4]: 0.87 nM and 0.92 nM and 1.1 nM

B3: DVD041 (bispecific antibody, human IgG1, lambda)
heavy: not shown
light: DIQMTQSPSSLSASVGDRVTITCSASQDISNYLNWYQQKPGKAPKVLIYFTSSLHSGVPSRFSGSGSGTDFTLTISSLQPEDFATYYCQQYSTVPWTFGQGTKVEIKRTVAAPQSVLTQPPSVSAAPGQKVTISCSGSSSNIENNHVSWYQQLPGTAPKLLIYDNNKRPSGIPDRFSGSKSGTSATLGITGLQTGDEADYYCETWDTSLSAGRVFGGGTKLTVLGQPKAAPSVTLFPPSSEELQANKATLVCLISDFYPGAVTVAWKADSSPVKAGVETTTPSKQSNNKYAASSYLSLTPEQWKSHRSYSCQVTHEGSTVEKTVAPTECS
A431, EGFR line proliferation inhibition IC50 [5]: > 50 nM
A431, EGFR line proliferation inhibition, max [5]: 0%
A431, EGFR line proliferation inhibition IC50 [6]: > 50 nM
A431, EGFR line proliferation inhibition, max [6]: 0%
A431, EGFR line proliferation inhibition IC50 [7]: > 50 nM
A431, EGFR line proliferation inhibition, max [7]: 0%

B4: DVD041 (bispecific antibody, human IgG1, lambda)
heavy: not shown
light: DIQMTQSPSSLSASVGDRVTITCSASQDISNYLNWYQQKPGKAPKVLIYFTSSLHSGVPSRFSGSGSGTDFTLTISSLQPEDFATYYCQQYSTVPWTFGQGTKVEIKRTVAAPQSVLTQPPSVSAAPGQKVTISCSGSSSNIENNHVSWYQQLPGTAPKLLIYDNNKRPSGIPDRFSGSKSGTSATLGITGLQTGDEADYYCETWDTSLSAGRVFGGGTKLTVLGQPKAAPSVTLFPPSSEELQANKATLVCLISDFYPGAVTVAWKADSSPVKAGVETTTPSKQSNNKYAASSYLSLTPEQWKSHRSYSCQVTHEGSTVEKTVAPTECS
C-terminal VD pIGFR1 Cellular Assay (IGF2 induced IC50 nM) [8]: 1.5 nM
C-terminal VD pIGF1R Cellular Assay (hIGF1 Neutralization IC50 nM) [9]: 16.8 nM

B5: AB074 (antibody, human IgG1, kappa, V domains shown)
VH: QVQLKQSGPGLVQPSQSLSITCTVSGFSLTTYGIHWVRQSPGKGLEWLGVMWSGGDTDYDAAFISRLSISKDNSKSQVFFKMNSLQANDTGIYYCARYRFYGMDYWGQGTSVTVSS
VL: AIQMTQSSSSFSVSLGDRVTITCKASEDIYNRFAWYQQKPGNAPRLLISGAASLEAGVPSRFSGSGSGQDYTLSITSLQTEDVATYYCQQYWSTPWTFGGGTKLEIKR
EC50 [10]: 0.49 nM

B6: AB062 (antibody, human IgG1, kappa, V domains shown)
VH: QVQLQQWGAGLLKPSETLSLTCAVYGGSFSGYYWSWIRQPPGKGLEWIGEINHSGSTNYNPSLKSRVTISVETSKNQFSLKLSSVTAADTAVYYCARDKWTWYFDLWGRGTLVTVSS
VL: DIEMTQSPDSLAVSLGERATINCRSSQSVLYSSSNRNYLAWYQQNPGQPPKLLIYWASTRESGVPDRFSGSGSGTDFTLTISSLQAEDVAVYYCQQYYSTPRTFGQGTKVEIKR
notes: also called AB062VH
EC50 [4]: 0.75 nM and 0.97 nM and 1.6 nM

B7: AB067 (antibody, human IgG1, lambda, L234A L235A, V domains shown)
VH: EVQLLESGGGLVQPGGSLRLSCAASGFTFSHYVMAWVRQAPGKGLEWVSSISSSGGWTLYADSVKGRFTISRDNSKNTLYLQMNSLRAEDTAVYYCTRGLKMATIFDYWGQGTLVTVSS
VL: QSALTQPASVSGSPGQSITISCTGTSSDVGSYNVVSWYQQHPGKAPKLIIYEVSQRPSGVSNRFSGSKSGNTASLTISGLQTEDEADYYCCSYAGSSIFVIFGGGTKVTVLG
notes: also called AB067VH
EC50 [4]: 1.78 nM and 2.2 nM and 1.12 nM

B8: DVD507 (bispecific antibody, human IgG1, kappa, L234A L235A)
heavy: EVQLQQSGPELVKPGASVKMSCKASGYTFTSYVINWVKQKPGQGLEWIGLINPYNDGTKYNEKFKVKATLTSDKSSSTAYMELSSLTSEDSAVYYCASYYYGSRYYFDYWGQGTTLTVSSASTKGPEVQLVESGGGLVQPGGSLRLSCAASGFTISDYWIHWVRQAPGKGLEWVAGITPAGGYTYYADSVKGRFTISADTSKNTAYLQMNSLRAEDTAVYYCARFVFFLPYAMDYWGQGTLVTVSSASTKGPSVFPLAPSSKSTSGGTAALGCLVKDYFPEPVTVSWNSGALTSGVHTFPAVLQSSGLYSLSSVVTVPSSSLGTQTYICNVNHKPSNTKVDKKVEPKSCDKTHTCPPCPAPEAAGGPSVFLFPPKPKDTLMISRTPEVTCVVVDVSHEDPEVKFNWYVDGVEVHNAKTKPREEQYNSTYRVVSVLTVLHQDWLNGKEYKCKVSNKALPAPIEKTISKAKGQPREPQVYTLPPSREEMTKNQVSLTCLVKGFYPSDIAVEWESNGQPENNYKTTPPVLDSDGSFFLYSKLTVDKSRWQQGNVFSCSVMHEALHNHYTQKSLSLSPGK
light: DIQMTQSSSYLSVSLGGRVTITCKASDHINNWLAWYQQKPGNAPRLLISGATSLETGVPSRFSGSGSGKDYTLSITSLQTEDVATYYCQQYWSIPLTFGAGTKLELKRTVAAPSVFIFPPDIQMTQSPSSLSASVGDRVTITCRASQDVSTAVAWYQQKPGKAPKLLIYSASFLYSGVPSRFSGSGSGTDFTLTISSLQPEDFATYYCQQSYTTPPTFGQGTKVEIKRTVAAPSVFIFPPSDEQLKSGTASVVCLLNNFYPREAKVQWKVDNALQSGNSQESVTEQDSKDSTYSLSSTLTLSKADYEKHKVYACEVTHQGLSSPVTKSFNRGEC
notes: DVD-Ig; N-term; AB072 (DLL4), C-term; AB070 (VEGF); HC linker short, LC linker long; also called DVD-Ig DVD507; DVD507H/DVD507L
EC50 [11]: 34.9 nM

B9: DVD510 (bispecific antibody, human IgG1, kappa)
heavy: not shown
light: DIQMTQSPSSLSASVGDRVTITCRASQVIRRSLAWYQQKPGKAPKLLIYAASNLASGVPSRFSGSGSGTDFTLTISSLQPEDFATYYCQQSNTSPLTFGQGTKVEIKRTVAAPSVFIFPPDIQMTQSSSYLSVSLGGRVTITCKASDHINNWLAWYQQKPGNAPRLLISGATSLETGVPSRFSGSGSGKDYTLSITSLQTEDVATYYCQQYWSIPLTFGAGTKLELKRTVAAPSVFIFPPSDEQLKSGTASVVCLLNNFYPREAKVQWKVDNALQSGNSQESVTEQDSKDSTYSLSSTLTLSKADYEKHKVYACEVTHQGLSSPVTKSFNRGEC
notes: DVD-Ig; N-term; AB071 (VEGF), C-term; AB072 (DLL4); HC linker short, LC linker long; also called DVD-Ig DVD510; DVD510H/DVD510L
EC50 [12]: 23.9 nM

B10: DVD508 (bispecific antibody, human IgG1, kappa)
heavy: not shown
light: DIQMTQSPSSLSASVGDRVTITCRASQDVSTAVAWYQQKPGKAPKLLIYSASFLYSGVPSRFSGSGSGTDFTLTISSLQPEDFATYYCQQSYTTPPTFGQGTKVEIKRTVAAPSVFIFPPDIQMTQSSSYLSVSLGGRVTITCKASDHINNWLAWYQQKPGNAPRLLISGATSLETGVPSRFSGSGSGKDYTLSITSLQTEDVATYYCQQYWSIPLTFGAGTKLELKRTVAAPSVFIFPPSDEQLKSGTASVVCLLNNFYPREAKVQWKVDNALQSGNSQESVTEQDSKDSTYSLSSTLTLSKADYEKHKVYACEVTHQGLSSPVTKSFNRGEC
notes: DVD-Ig; N-term; AB070 (VEGF), C-term; AB072 (DLL4); HC linker short, LC linker long; also called DVD-Ig DVD508; DVD508H/DVD508L
EC50 [12]: 7.88 nM

B11: AB010 (antibody, human IgG1, lambda, V domains shown)
VH: QVQLVQSGAEVKKPGASVKVSCKASGYTFTSYDINWVRQATGQGLEWMGWMNPNSGNTGYAQKFQGRVTMTRNTSISTAYMELSSLRSEDTAVYYCARDPYYYYYGMDVWGQGTTVTVSS
VL: QSVLTQPPSVSAAPGQKVTISCSGSSSNIENNHVSWYQQLPGTAPKLLIYDNNKRPSGIPDRFSGSKSGTSATLGITGLQTGDEADYYCETWDTSLSAGRVFGGGTKLTVLG
A431, EGFR line proliferation inhibition IC50 [5]: > 67 nM
A431, EGFR line proliferation inhibition, max [5]: 10 % max
A431, EGFR line proliferation inhibition IC50 [7]: > 67 nM
A431, EGFR line proliferation inhibition, max [7]: 10 % max
H929, IGF1R line proliferation inhibition IC50 [13]: 1.6 nM
H929, IGF1R line proliferation inhibition, max [13]: 70 % max
H929, IGF1R line proliferation inhibition IC50 [14]: 1.6 nM
H929, IGF1R line proliferation inhibition, max [14]: 70 % max

B12: AB010 (antibody, human IgG1, lambda, V domains shown)
VH: QVQLVQSGAEVKKPGASVKVSCKASGYTFTSYDINWVRQATGQGLEWMGWMNPNSGNTGYAQKFQGRVTMTRNTSISTAYMELSSLRSEDTAVYYCARDPYYYYYGMDVWGQGTTVTVSS
VL: QSVLTQPPSVSAAPGQKVTISCSGSSSNIENNHVSWYQQLPGTAPKLLIYDNNKRPSGIPDRFSGSKSGTSATLGITGLQTGDEADYYCETWDTSLSAGRVFGGGTKLTVLG
pIGFR1 Cellular Assay (IGF2 induced IC50 nM) [8]: 0.3 nM
pIGF1R Cellular Assay (hIGF1 Neutralization IC50 nM) [9]: 1.7 nM

B13: DVD532 (bispecific antibody, human IgG1, kappa, lambda)
heavy: not shown
light: DIQMTQSPSSLSASVGDRVTITCRASQDVSTAVAWYQQKPGKAPKLLIYSASFLYSGVPSRFSGSGSGTDFTLTISSLQPEDFATYYCQQSYTTPPTFGQGTKVEIKRTVAAPSVFIFPPQAVVTQESALTTSPGETVTLTCRSSTGAVTTSNYANWVQEKPDHLFTGLIGGTNNRAPGVPARFSGSLIGDKAALTITGAQTEDEAIYFCALWYSNHWVFGGGTKLTVLGQPKAAPSVTLFPPSSEELQANKATLVCLISDFYPGAVTVAWKADSSPVKAGVETTTPSKQSNNKYAASSYLSLTPEQWKSHRSYSCQVTHEGSTVEKTVAPTECS
notes: DVD-Ig; N-term; AB070 (VEGF), C-term; AB073 (DLL4); HC linker short, LC linker long; also called DVD-Ig DVD532; DVD532H/DVD532L
EC50 [12]: 28.9 nM

B14: AB047 (antibody, human IgG1, kappa, V domains shown)
VH: QVQLQQSGAELVKPGASVKISCKASGYTFTDYYINWVKLAPGQGLEWIGWIYPGSGNTKYNEKFKGKATLTIDTSSSTAYMQLSSLTSEDTAVYFCVRDSPFFDYWGQGTLLTVSS
VL: DIVLTQSPDSLAVSLGERVTMNCKSSQSLLNSGMRKSFLAWYQQKPGQSPKLLIYWASTRESGVPDRFTGSGSGTDFTLTISSVQAEDVAVYYCKQSYHLFTFGSGTKLEIKR
EC50 [10]: 0.13 nM and 0.14 nM and 0.17 nM
